B1: BjACC38383.1: GH3 protein, accession ACC38383.1 (protein, listed as Brassica juncea)
chain: MIIISYYNEEEKGKVLEDLTWNVKQIQDDLLKEILTLNSGTEYLQNFLHGSSAKELFKKNLPIVTYKDVKPYIDRVANGESSNIISTLPITNFFNSSGTSGGANKILPSNSKYLDGSAFSTDLLAHVIRKHVKGVERGKGMLFFLTGHDTKTPGGFPIEDGISWYLKSDYFKNRPSTWFYSYTSPDEVMLGSDLKENLYCHLLCGLVQRDEVTRIGSTFASGMVRVIKVLEDSWKELCSNIRSGNLSEWITDSGCRNSVSLVLGGQPRHKLSDEIESICSQKSWKGIMKKLWPQTLCIEAIATGSMAQYVPTLKHYSGDVPLVSTIYASSESMFGINTDPLCQPENTSYTLMPNISYFEFIPTEGGNGDVVDLADVKLGCSYQLLVTNLWGLYRMRIGDIVKVTGFHNKAPKFRVIGRENTLLSIDTDRTTEEYLLKAVNRARLVLESSDLRLVAFTSYADISSSPGHYVIYWEVKTKEEDMKELDEKTFLECCSVMEDTLDEEYMYCRANEFIGPLEIRVVNDGTFDSLMNLSISKGASITQYKYWRQMWLLDSSVLSEHLMCLSHDIWSKKRGRNVCVLSVLSWFLLTIF
B2: GmGH3-15: GH3 protein, accession XP_003540050.1 (protein)
chain: MPEAPRDYNLFEQNKKTLEFIEDVTANADQVQKRVLSEILSNNANVEYLKRHDLHGQTDRETFKKLLPVITYEDIQPDINRIANGDTSPILCSKPISEFLTSSGTSGGERKLMPTIEEELGRRSLLYSLLMPVMSQFVPGLEKGKGMYLMFIKSEAKTPGGIVARPVLTSYYKSSYFKDRPYDPYTNYTSPNETVLCPDSYQSMYSQLLCGLCQHKEVLRVGAVFASGFIRAIRFLEKHWPLLCHDIRTGTINNTITDLSVRDAVMKILKPDPRLGDLIQSECGKSSWQGIITRLWPNTKYVDVIVTGTMSQYIPTLDYYSNGLPLVCTMYASSECYFGVNLNPLCKPSEVSYTLIPTMCYYEFLPVNRSNGVSHDSLHTPRSLNEKEQQELVELVDVKLGQEYELVVTTYAGLYRYRVGDVLRVAGFKNKAPQFNFVCRKNVVLSIDSDKTDEVELQNAMKNAVTHLVPFDASVSEYTSYADTTTIPGHYVLYWELSLKGSTPIPPCVFEDCCLAIEESLNSVYRQGRVSDKSIGPLEIKIVEQGTFDKLMDYAISLGASINQYKTPRCVKFAPVVELLNSRVVEKYFSPKCPKWVPGHKQWINQN
modifications: Glycine max
B3: GmGH3-2: GH3 protein, accession XP_003521802.1 (protein)
chain: MLEKVEEFNMDKVIQEFELLTRDAERVQRETLKRILEDNASAEYLQSLGLNGRTDPESFKACVPMVTHKELEPYIYRIIDGDASPILTGKPITTMSLSSGTTQGKPKYVPWNDELYETTMQIYQTSFAFRNREFPIKNGKALSFIYGSKQLKTKGGLAARTATSNVFCSAGYKCAMRALQSQCCSPDEVIFGPDFFQSLYCHLLCGLIFREEVEFVSSTFAHSIVHAFRTFEQVWEELCNDIREGVLTRNVTVPSIRMAMSKLLKPNPELANAIHKKCTGLSNWYGLIPELFPNAKYIYGIMTGSMEPYLKKMRHYAGELPLLTADYGSSEGWIAANVNPQLPPEYATYAVLPHIGYFEFIPLLELENTKPLGLTQVKVGQEYEIVMTNPAGLYRYRLGDVVKVMGFHNSTPELKFIRRSSLLLNINIDKNTEKDLQLAVEAAGKLLAEEKLEVVDFSSQVDLSKEPGHYVIFWEISGDASQELLHECCNCLDKSFVDAGYTSSRKVNCIGALELRLVRRGTFQKILDHYLGLGTAVSQYKTPRCVGPTNTRVLQILSENVVNNYLSTAFN
modifications: Glycine max
B4: GmGH3-10: GH3 protein, accession XP_003541929.1 (protein)
chain: MPEAPKHLCHDPKDNLDDDDDDGSSNNNKRALEYIEEVTTNADEIQEKVLAQILSRSANAEYLQRHGLEGRTDRNTFKNIMPVVTYEDLKPDIDRIANGDTSPILCSKPISEFLTSSGTSGGERKLMPTIEEELERRSMLYSLLMPVMDQFVPDLDKGKGMYFLFTKSEAKTPGGLLARPVLTSYYKSSHFKHRKHDPYTNYTSPNETILCHDSYQSMYSQLLCGLYQNEEVLRVGAVFASGFIRALKFLEKHFVCLCNDIRTGTLDAKITDPSVREAVMKVLKPNPTLADFVETECMKGSWKGIITRIWPNTKYVDVIVTGTMSQYIPILDYYSNGLPLVCTMYASSECYFGLNLNPSCDPSEVAYTLIPTMAYFEFLPLDEINGHTNSISQLEQEHLVDLADVKLGQEYELVVTTYAGLYRYRVGDILRVAGFKNKAPQFNFVCRKNVVLSIDSDKTDEVELHNAVKSGAEQLAEFNASLTEYTSCVDTSTIPGHYVLYWEISTNDHTPTIPSSVFGHCCLSIEESLNSVYRQGRVSESIGPLEIKVVENGTFDKLMDFALSQGASINQYKTPRCVTYAPILDLLNSKVLSSYISPKCPNWVPGHKDWCTLH
modifications: Glycine max
B5: Gm03g30590.1: GH3 protein, Glyma03g30590.1 (protein)
chain: MMTDEELLQKLEDLTKNAQHHHLETLRSILLHNGIVHYLQSFKKGSLLHLDPSTFARVVPLSTYEDYVDYINQMAEGKDDPFLSVDPLRCFFYSSGTSSSTMKPKLIPYFDSSLSKAASFIGHRGSVAVRQRLFPPRPEVNKILWFLYADNITTTKCGLKVMAASTYPLQSGNATPQQLAAFSSPLEVILATNVENQMYCHLLCGLRNLDLIDGIATPYAIGLIKAFGFLESKWEQLCDDLDHGFPCNEISEGAMREAVTNTLGGPQPELANRIRLICEGNNWGGIVYRLWPNIRYIRCVTTGSMKQYYQKLKYYAGEVPILGGDYFASECCVGLNLDIMQPPETTRFVMLPTFAYFEFLPFNINEDNDASKEAVDYSSVEVGKMYEVVVTTYRGYYRYRLGDIVRVVGFYNSSPLVEYVMRAPKTPAEIVTEKDLISAVENFQLALRGAMRIEIVEFASFLDQESMPKQLKVFVEVQEESDFLEDKLEESVRVLRSCISSLESGLGAIYKVQKDKGQLRSLRIFIIRPGAFDQLSELAIKNGTSASQYKPPKIIRNHEVVKLLEKLAFVAVSFDG
modifications: Glycine max
B6: GmGH3-14: GH3 protein, accession XP_003516612.1 (protein)
chain: MRPYPYVFPGPHVLPAKSTTEVVLIFCPLRYPGPLPLSFPFILSILILPSLIMALQFIEQVTKNTDSVQERVLSEILTQNAETEYLKRFALNGATDRDTFKSKVPVVTYEDLQPDIERIANGDRSPILCAHPISEFLTSSGTSAGERKLMPTIHEEMDRRQLLYSLLMPVMNQYVSDLDKGKALHFLFIKAEAKTPGGLMARPVLTSYYKSEQFRKRPFDPYNVLTSPNEAILCPDSFQSMYTQMLCGLIMRHEVLRVGAVFASGLLRAIRFLQLNWEQLSHDILTGTLNPKITEPSIKERMSKILKPDPELAAFIKSECSGENWERIIVRIWPNTKYLDVIVTGAMAQYIPTLDYYSGGLPKPCTMYASSECFFGLNLKPMSEPSDVSYTILPNMGYFEFLPHDDSSPITLSKDSPPRLVELADVELGKYYELIITTYAGLCRYRVGDILQVTGFHNSDPQFRFVRRKNVLLSIDSDKTDESELQKAVENASELLKEFNTSVAEYTSFADTKSIPGHYVIYWELMMKDSSHPPTNQVLNQCCLVMEESLNSVYRQGRVADNSIGPLEIRVVKNGTFEELMDYAISRGASINQYKVPRCVSFTPIMELLDSRVLSFHFSPAAPHWTPERRR
modifications: Glycine max
B7: GmGH3-6: GH3 protein, accession XP_003540891.1 (protein)
chain: MPQHQPTLMEPVLSYNNSTNNGNGNSDYDIISWFEDVSQNAGFVQTQLLFQILKQNYGVEYLKKWLGSYNILEMDACALESLFSSVVPLASHADFEPFIQRIADGDTAPLLTQQPITTLSLSSGTTEGRQKFVPFTRHSAQTTLQIFTLAAAYRSRIYPIRQGGRILEFIYSSNRFKTKGGLTVGTATTHYYASEEFNIKQHKTKSFTCSPQEVISGGDYKQSTYCHLLLGLFFSDQVEFITSAFIYSMVQAFTTFEELWREICNDIRDGTLSSRIKSPKMRKAVLDIISPNPNLAAKLEDACKGLEVVDWFGLIPKLWPNAKYVYSIMTGSMQPYLKKLRHYANGLPLVSADYGSTESWIGVNVDPSLPPEDVTFAVVPTFSYFEFIPLHRNEKNFSSGGDDFIEDKPIPLSQIKVGQEYEVVLTTFTGLYRCRLGDVVEVAGFHNGTPKLNFVCRRKLILTINIDKNTEKDLQLVVERGSHILNMTSRGELVDFTSYADVSKQPGHYVIYWEIKGEVEDKILGACCNEMDKSFADHGYVVSRKTNSIGPLELCVLESGTFKKILDSFIANGAALSQFKTPRCTNNHVLLKILNTCTTKKFRSTAYNSSMEQ
modifications: Glycine max

How the values were obtained:
Format in all cases: biochemical
[1] = LC-MS assay of GH3 conjugation of IAA with Asp or Glu; details: LC-MS; for Detected auxin conjugates: IAA-Asp: IAA with Asp; for Detected auxin conjugates: IAA-Glu: IAA with Glu
Method in brief: (§1)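 Rxn: 20 mM Tris-HCl pH 8.0, 5 mM MgCl2, 1 mM DTT, 5 mM ATP, 5 mM auxin, 5 mM Asp/Glu, 44–164 μg/mL purified His-GH3; 30° C., 3 h. MeOH quench, supernatant diluted 20×, LC-MS vs conjugate standards.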

[2] = LC-MS assay of GH3 conjugation of 2,4-D with Asp or Glu; details: LC-MS; for Detected auxin conjugates: 2,4-D-Asp: 2,4-D with Asp; for Detected auxin conjugates: 2,4-D-Glu: 2,4-D with Glu
Method in brief: as §1

[3] = LC-MS assay of GH3 conjugation of dicamba with Asp or Glu; details: LC-MS; for Detected auxin conjugates: Dicamba-Asp: dicamba with Asp; for Detected auxin conjugates: Dicamba-Glu: dicamba with Glu
Method in brief: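 GH3 superfamily homologs, found by Blast searches of public databases using AtGH3.17 (Q9FZ87), were synthesized with E. coli-optimized codons and an N-terminal his-tag, expressed in OverExpress C41(DE3) cells after 0.2 mM IPTG induction at 16° C., and Ni-NTA purified. Conjugation of dicamba with Asp or Glu was measured by LC-MS using conjugate standards.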

Row | Molecule | Detected auxin conjugates: IAA-Asp [1] | Detected auxin conjugates: IAA-Glu [1] | Detected auxin conjugates: 2,4-D-Asp [2] | Detected auxin conjugates: 2,4-D-Glu [2] | Detected auxin conjugates: Dicamba-Asp [3] | Detected auxin conjugates: Dicamba-Glu [3]
1 | B1 | Yes | No | No | No | No | No
2 | B2 | Yes | Yes | Yes | Yes | No | No
3 | B3 | Yes | No | No | No | No | No
4 | B4 | Yes | Yes | Yes | Yes | No | No
5 | B5 | Yes | No | Yes | Yes | No | No
6 | B6 | No | No | No | No | No | No
7 | B7 | Yes | Yes | No | No | No | No

Source: patent US20150351390A1, “COMPOSITIONS AND METHODS FOR AUXIN-ANALOG CONJUGATION” (PIONEER HI-BRED INTERNATIONAL, INC., priority 2012, published 2015)
